Among the data in the supplement of paper PMC10567573 are protein stability index values, retold here.

Sequences and labels used below:
B1: CDS2 (parent)
chain: IHSIALSTFASLIGPFGGFFASGF
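Also: lentivirally expressed fusions sorted by FACS into six bins by GFP to DsRed ratio, PSI derived from sequencing read proportions per bin multiplied by bin number.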

Variants of B1 are the subject of this data set. Kind of data set: protein stability index of a GFP-peptide fusion (GPS, HEK-293T) (PSI 1-6); higher = more stable. The following applies: c terminus: a fixed tail appended.
IHSIALSTFASCIGPFGGFFASGF [L12C]: the protein stability index is 2.74. The figure for IHSIALSTFASTIGPFGGFFASGF [L12T] is 1.49; for IHSIALSTFASDIGPFGGFFASGF [L12D] it is 3.44; for IHSIALSTFASIIGPFGGFFASGF [L12I] it is 2.76. As to IHSIALSTFASGIGPFGGFFASGF [L12G], the protein stability index stood at 3.36.

On to IHSIALSTFASAIGPFGGFFASGF [L12A], for which the protein stability index amounted to 2.82.

With IHSIALSTFASEIGPFGGFFASGF [L12E], the protein stability index came out at 2.51. As to IHSIALSTFASHIGPFGGFFASGF [L12H], the protein stability index came out at 3.22. The figure for IHSIALSTFASRIGPFGGFFASGF [L12R] is 1.6.

Take IHSIALSTFASFIGPFGGFFASGF [L12F]: the protein stability index was determined as 4.01.

Take IHSIALSTFASWIGPFGGFFASGF [L12W]: the protein stability index was 3.43.

In the case of IHSIALSTFASPIGPFGGFFASGF [L12P], the protein stability index was found to be 2.99. Turning to IHSIALSTFASYIGPFGGFFASGF [L12Y], the protein stability index was determined as 2.37. The figure for IHSIALSTFASSIGPFGGFFASGF [L12S] is 3.23. The value for IHSIALSTFASKIGPFGGFFASGF [L12K] was 3.15. The figure for IHSIALSTFASQIGPFGGFFASGF [L12Q] is 4.09; for IHSIALSTFASNIGPFGGFFASGF [L12N] it is 2.95; for IHSIALSTFPSLIGPFGGFFASGF [A10P] it is 2.39.

Take IHSIALSTFHSLIGPFGGFFASGF [A10H]: the protein stability index was determined as 2.85. IHSIALSTFTSLIGPFGGFFASGF [A10T]: the protein stability index amounted to 4.58. With IHSIALSTFDSLIGPFGGFFASGF [A10D], the protein stability index stood at 3.54.

Take IHSIALSTFWSLIGPFGGFFASGF [A10W]: the protein stability index was 3.06. The value for IHSIALSTFSSLIGPFGGFFASGF [A10S] was 2.6; that for IHSIALSTFMSLIGPFGGFFASGF [A10M] was 3.11; that for IHSIALSTFFSLIGPFGGFFASGF [A10F] was 3.04. As for IHSIALSTFNSLIGPFGGFFASGF [A10N], the protein stability index came out at 1.6. For the variant IHSIALSTFESLIGPFGGFFASGF [A10E], the protein stability index amounted to 3.6. The figure for IHSIALSTFKSLIGPFGGFFASGF [A10K] is 1.79. Consider IHSIALSTFCSLIGPFGGFFASGF [A10C], for which the protein stability index is 2.97. For the variant IHSIALSTFLSLIGPFGGFFASGF [A10L], the protein stability index was found to be 2.98.

Consider IHSIALSTFISLIGPFGGFFASGF [A10I], for which the protein stability index was 4.24. The value for IHSIALSTFVSLIGPFGGFFASGF [A10V] was 3.29; that for IHSIALSTFGSLIGPFGGFFASGF [A10G] was 3.32; that for IHSIALSEFASLIGPFGGFFASGF [T8E] was 2.67.

Regarding IHSIALSRFASLIGPFGGFFASGF [T8R], the protein stability index stood at 3.47. With IHSIALSQFASLIGPFGGFFASGF [T8Q], the protein stability index was found to be 1.86. With IHSIALSDFASLIGPFGGFFASGF [T8D], the protein stability index came to 2.14. For the variant IHSIALSHFASLIGPFGGFFASGF [T8H], the protein stability index came out at 3.82. The value for IHSIALSIFASLIGPFGGFFASGF [T8I] was 1.82. As for IHSIALSAFASLIGPFGGFFASGF [T8A], the protein stability index turned out to be 3.48. The figure for IHSIALSMFASLIGPFGGFFASGF [T8M] is 2.49. Regarding IHSIALSGFASLIGPFGGFFASGF [T8G], the protein stability index worked out at 2.63. The figure for IHSIALSPFASLIGPFGGFFASGF [T8P] is 3.52; for IHSIALSWFASLIGPFGGFFASGF [T8W] it is 2.58. IHSIALSNFASLIGPFGGFFASGF [T8N]: the protein stability index amounted to 3.16. As for IHSIALSVFASLIGPFGGFFASGF [T8V], the protein stability index came out at 2.86.

On to IHSIALSTQASLIGPFGGFFASGF [F9Q], for which the protein stability index is 3.22. IHSIALSTPASLIGPFGGFFASGF [F9P]: the protein stability index worked out at 2.63. The value for IHSIALSTDASLIGPFGGFFASGF [F9D] was 2.15. As to IHSIALSTNASLIGPFGGFFASGF [F9N], the protein stability index is 2.11.

For the variant IHSIALSTIASLIGPFGGFFASGF [F9I], the protein stability index turned out to be 3.79. The value for IHSIALSTGASLIGPFGGFFASGF [F9G] was 2.44. Consider IHSIALSTCASLIGPFGGFFASGF [F9C], for which the protein stability index was found to be 2.62. For the variant IHSIALSTWASLIGPFGGFFASGF [F9W], the protein stability index was found to be 2.81. Turning to IHSIALSTYASLIGPFGGFFASGF [F9Y], the protein stability index came out at 1.62. The value for IHSIALSTLASLIGPFGGFFASGF [F9L] was 3.88; that for IHSIALSTRASLIGPFGGFFASGF [F9R] was 3.28; that for IHSIALSTHASLIGPFGGFFASGF [F9H] was 1.51. In the case of IHSIALSTEASLIGPFGGFFASGF [F9E], the protein stability index stood at 1.92. Take IHSIALSTSASLIGPFGGFFASGF [F9S]: the protein stability index turned out to be 3.33. The figure for IHSIALSTFASLIGKFGGFFASGF [P15K] is 1.77; for IHSIALSTFASLIGRFGGFFASGF [P15R] it is 1.88; for IHSIALSTFASLIGHFGGFFASGF [P15H] it is 2.17. Consider IHSIALSTFASLIGAFGGFFASGF [P15A], for which the protein stability index is 2.41. Consider IHSIALSTFASLIGSFGGFFASGF [P15S], for which the protein stability index was determined as 2.34. Take IHSIALSTFASLIGIFGGFFASGF [P15I]: the protein stability index was determined as 4.59. The figure for IHSIALSTFASLIGQFGGFFASGF [P15Q] is 3.43; for IHSIALSTFASLIGDFGGFFASGF [P15D] it is 3.92; for IHSIALSTFASLIGYFGGFFASGF [P15Y] it is 1.75. In the case of IHSIALSTFASLIGNFGGFFASGF [P15N], the protein stability index came to 2.82. In the case of IHSIALSTFASLIGWFGGFFASGF [P15W], the protein stability index amounted to 2.2.

Regarding IHSIALSTFASLIGFFGGFFASGF [P15F], the protein stability index is 2.46. Turning to IHSIALSTFASLIGLFGGFFASGF [P15L], the protein stability index came to 4.3.

With IHSIALSTFASLIGTFGGFFASGF [P15T], the protein stability index was 3.98. For the variant IHSIALSTFASLIGCFGGFFASGF [P15C], the protein stability index turned out to be 2.62. In the case of IHSIALSTFASLIGGFGGFFASGF [P15G], the protein stability index was determined as 3.77.

Take IHSIALSTFASLIGEFGGFFASGF [P15E]: the protein stability index stood at 3.88. On to IHSIALSTFASLIGMFGGFFASGF [P15M], for which the protein stability index came to 3.79.

IHSIARSTFASLIGPFGGFFASGF [L6R]: the protein stability index came out at 1.67.

As for IHSIAWSTFASLIGPFGGFFASGF [L6W], the protein stability index came out at 2.43. Consider IHSIAKSTFASLIGPFGGFFASGF [L6K], for which the protein stability index was 3.48. On to IHSIAQSTFASLIGPFGGFFASGF [L6Q], for which the protein stability index is 2.28. The value for IHSIAISTFASLIGPFGGFFASGF [L6I] was 3.38; that for IHSIAPSTFASLIGPFGGFFASGF [L6P] was 2.23. Regarding IHSIATSTFASLIGPFGGFFASGF [L6T], the protein stability index is 1.39. The value for IHSIAVSTFASLIGPFGGFFASGF [L6V] was 3.03; that for IHSIAFSTFASLIGPFGGFFASGF [L6F] was 2.34. The value for IHSIAYSTFASLIGPFGGFFASGF [L6Y] was 3.33; that for IHSIANSTFASLIGPFGGFFASGF [L6N] was 2.62; that for IHSIAGSTFASLIGPFGGFFASGF [L6G] was 2.54.

For the variant IHSIAMSTFASLIGPFGGFFASGF [L6M], the protein stability index came to 4.1. The value for IHSIALSTFASLIGPTGGFFASGF [F16T] was 2.92; that for IHSIALSTFASLIGPYGGFFASGF [F16Y] was 2.37; that for IHSIALSTFASLIGPGGGFFASGF [F16G] was 4.52.
